Assay results taken from patent US7276481B2, “Method and composition for treatment of skeletal dysplasias” (ProChon Biotech Ltd., priority 2001, dated 2007).
“Also recorded” adds a separate entry of the source. Read-outs that look alike come from different tables or passages of the source.

Assays:
[1] = target: T1, natriuretic peptide receptor on C3H10T1/2 cells (Mus musculus, UniProt Q6VVW5); test: Biotrak enzyme immunoassay of cGMP elicited on C3H10T1/2 cells; assay type: cell-based
T1 construct: endogenous in cells; host or cells: C3H10T1/2 cells
T1 sequence (Q6VVW5 23-1047 limits assumed): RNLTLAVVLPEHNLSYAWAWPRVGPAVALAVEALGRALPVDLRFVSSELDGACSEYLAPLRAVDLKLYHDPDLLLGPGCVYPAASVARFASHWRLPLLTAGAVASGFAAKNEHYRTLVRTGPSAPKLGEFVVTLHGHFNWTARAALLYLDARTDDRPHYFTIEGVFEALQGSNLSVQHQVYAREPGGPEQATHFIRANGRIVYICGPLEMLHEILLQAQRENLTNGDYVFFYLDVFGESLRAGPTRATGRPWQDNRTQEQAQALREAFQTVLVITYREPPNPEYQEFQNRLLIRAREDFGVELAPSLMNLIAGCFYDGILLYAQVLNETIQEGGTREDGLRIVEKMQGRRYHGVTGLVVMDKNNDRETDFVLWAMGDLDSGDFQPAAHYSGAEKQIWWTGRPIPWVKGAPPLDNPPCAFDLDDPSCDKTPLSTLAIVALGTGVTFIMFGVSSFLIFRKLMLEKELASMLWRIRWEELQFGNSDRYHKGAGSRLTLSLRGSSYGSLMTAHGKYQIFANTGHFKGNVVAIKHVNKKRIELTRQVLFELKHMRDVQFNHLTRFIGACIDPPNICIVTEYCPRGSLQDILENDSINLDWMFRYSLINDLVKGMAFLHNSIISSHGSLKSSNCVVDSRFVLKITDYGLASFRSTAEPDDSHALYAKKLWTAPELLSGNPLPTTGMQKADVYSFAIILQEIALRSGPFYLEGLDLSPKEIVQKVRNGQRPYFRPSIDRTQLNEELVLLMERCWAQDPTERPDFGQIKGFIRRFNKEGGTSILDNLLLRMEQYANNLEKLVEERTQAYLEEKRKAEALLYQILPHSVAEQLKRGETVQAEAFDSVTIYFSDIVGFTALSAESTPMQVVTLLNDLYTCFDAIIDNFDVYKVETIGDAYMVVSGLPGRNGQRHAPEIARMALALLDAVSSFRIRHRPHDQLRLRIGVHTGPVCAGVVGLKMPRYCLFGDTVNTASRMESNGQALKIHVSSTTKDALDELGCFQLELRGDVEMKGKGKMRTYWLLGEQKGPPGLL
Method: All peptide variants were analyzed for activity using the Biotrak enzyme immunoassay (EIA, Amersham) that measures the amount of secondary messenger, cyclic GMP (cGMP), elicited after activation of the natriuretic peptide receptor by the peptide on C3H10T1/2 cells. Amino acid substitutions are marked in bold and underlined. The assay was performed for CNP and variants at a concentration of 10^−6 M. The values are given as the percent of relative binding compared to CNP, where CNP 1-22 and CNP 5-22 yield 100% binding.

[2] = test system: femora derived from achondroplasia model mice (Ach369, Ach374) and wild type littermates; test: Ex vivo femoral bone culture; details: for bone elongation / longitudinal growth in bone culture (in words): femora of Ach and wild type mice, versus vehicle or untreated; for Growth rate (days 0-3) / Growth rate (days 3-15): CNP treated femora, 40 units=1 mm
Method: Femora derived from achondroplasia model mice (Ach369 knock-in mice carry the Gly to Cys mutation at position 369, analogous to position 375 in humans or Ach374 knock-in mice that carry the Gly to Arg mutation at position 374, analogous to position 380 in humans) were dissected from P0 wild type, heterozygote and homozygote littermates and cultured in the presence of natriuretic peptides for 15 days.
Protocol for Bone Culture: Femoral bone cultures were performed by excising the hind limbs of mice. The limbs were carefully cleaned from the surrounding tissue (skin and muscles) and the femora exposed. The femora were removed and further cleared from tissue remains and ligaments. The femora were measured for their initial length, using a binocular with an eyepiece micrometer ruler. The bones were grown in 1 ml of medium (α-MEM supplemented with penicillin (100 units/ml), streptomycin (0.1 mg/ml), nystatin (12.5 units/ml), BSA (0.2%), β-glycerophosphate (1 mM) and freshly prepared ascorbic acid (50 μg/ml)) with varying concentrations of NPs or CNP variants in a 24 well tissue culture dish. The bones were cultured for 15 days while measurements of bone length and medium replacement were performed every three days. At the end of the experiment, the growth rate of the bones was determined. The growth rate of bones is calculated from the slope of a linear regression fit on the length measurements obtained from day 3 to 15. Units given can be converted to length, 40 units=1 mm.

[3] = test system: fetal bone organ culture from wild type (normal) animals; details: wild type fetal bones; cited from earlier work
[4] = 125Iodine-labeled GH in blood after IP administration; assay type: in vivo, mice; details: 125Iodine-labeled GH IP, one hour after a pulse of unlabelled GH
Text: To determine whether GH can enter the growth plate from the circulation, GH was labeled with ^125Iodine and administered to mice IP, one hour after a pulse of unlabelled GH. Blood samples were collected at several time points and analyzed on a protein gel.

[5] = Table 2, cGMP assay, compared to CNP
[6] = Table 3, cGMP values at 10^-6 M, compared to CNP (CNP 1-22 and CNP 5-22 = 100%)

Substance | cGMP response as percent of CNP [1, 6] [%] | further results
C F G L K L D R I G S A S G L G C (CFGLKLDRIGSASGLGC; peptide variant) [SEQ ID NO:10] |  | activity in cGMP assay (in words) [1]: increases activity; cGMP response as percent of CNP [1, 5]: 138.1%; activity in cGMP assay (in words) ([1]; listed as SEQ ID NO: 10): retains high activity; bone elongation / longitudinal growth in bone culture (in words) [2]: induced elongation of Ach369 femora even at a concentration similar to that of CNP
C F G L K L E R I G S M S G L G C (CFGLKLERIGSMSGLGC; peptide variant) [SEQ ID NO:35] | 9.450 | 
C H F G L K L D R I - - - - - - C (CHFGLKLDRIC; peptide variant) [SEQ ID NO:23] |  | cGMP response as percent of CNP [1, 5]: 3.8%
C H F G L K L D R I G A Q S - - C (CHFGLKLDRIGAQSC; peptide variant) [SEQ ID NO:13] |  | cGMP response as percent of CNP [1, 5]: 26.5%
C H F G L K L D R I G S - - - - C (CHFGLKLDRIGSC; peptide variant) [SEQ ID NO:20] |  | cGMP response as percent of CNP [1, 5]: 11.9%
C H F G L K L D R I G S M A - - C (CHFGLKLDRIGSMAC; peptide variant) [SEQ ID NO:12] |  | cGMP response as percent of CNP [1, 5]: 21.7%
C H F G L K L D R I G S M S - - C (CHFGLKLDRIGSMSC; peptide variant) [SEQ ID NO:11] |  | cGMP response as percent of CNP [1, 5]: 25.9%
C H G L K L D R I G S M S G L G C (CHGLKLDRIGSMSGLGC; peptide variant) [SEQ ID NO:33] | 5.699 | 
C I G L K L D R I G S M S G L G C (CIGLKLDRIGSMSGLGC; peptide variant) [SEQ ID NO:28] | 13.899 | 
C L G L K L D R I G S M S G L G C (CLGLKLDRIGSMSGLGC; peptide variant) [SEQ ID NO:29] | 6.255 | 
C M G L K L D R I G S M S G L G C (CMGLKLDRIGSMSGLGC; peptide variant) [SEQ ID NO:30] | −1.341 | 
C T G L K L D R I G S M S G L G C (CTGLKLDRIGSMSGLGC; peptide variant) [SEQ ID NO:34] | −6.903 | 
C V G L K L D R I G S M S G L G C (CVGLKLDRIGSMSGLGC; peptide variant) [SEQ ID NO:32] | 5.740 | 
C W G L K L D R I G S M S G L G C (CWGLKLDRIGSMSGLGC; peptide variant) [SEQ ID NO:31] | −10.834 | 
C-type natriuretic peptide [CNP] | 100 | induction of bone elongation (rank order) [3]: more than BNP and much more than ANP; Growth rate (days 0-3) ([2]; +/+ wild type (wt)): 0.25 mm/day; Growth rate (days 3-15) ([2]; +/+ wild type (wt)): 0.143 mm/day; Growth rate (days 0-3) ([2]; Ach/+ heterozygote): 0.228 mm/day; Growth rate (days 3-15) ([2]; Ach/+ heterozygote): 0.085 mm/day; Growth rate (days 0-3) ([2]; Ach/Ach homozygote): 0.177 mm/day; Growth rate (days 3-15) ([2]; Ach/Ach homozygote): 0.07 mm/day; bone elongation / longitudinal growth in bone culture (in words) [2]: increased the total longitudinal growth of femora; also recorded: increased in size at a rate higher than that of the untreated limbs
GH: growth hormone labeled with 125Iodine and administered to mice IP |  | labeling of blood samples on a protein gel over time [4]: increases in the first 2-3 hours, can still be observed at 6 hours and almost disappears at 24 hrs

More lines, main results first:

cGMP response as percent of CNP [1, 6] [%] | Substance | further results
14.177 | C F G L K L D R L G S M S G L G C (CFGLKLDRLGSMSGLGC; peptide variant) [SEQ ID NO:51] | 
−1.945 | C F G L K L D R T G S M S G L G C (CFGLKLDRTGSMSGLGC; peptide variant) [SEQ ID NO:53] | 
27.103 | C F G L K L D R V G S M S G L G C (CFGLKLDRVGSMSGLGC; peptide variant) [SEQ ID NO:52] | 
7.228 | C F G L K L I R I G S M S G L G C (CFGLKLIRIGSMSGLGC; peptide variant) [SEQ ID NO:38] | 
7.784 | C F G L K L M R I G S M S G L G C (CFGLKLMRIGSMSGLGC; peptide variant) [SEQ ID NO:39] | 
17.235 | C F G L K L N R I G S M S G L G C (CFGLKLNRIGSMSGLGC; peptide variant) [SEQ ID NO:37] | 
−17.095 | C F G L K L Q R I G S M S G L G C (CFGLKLQRIGSMSGLGC; peptide variant) [SEQ ID NO:36] | 
66.714 | C F G L K V D R I G S M S G L G C (CFGLKVDRIGSMSGLGC; peptide variant) [SEQ ID NO:47] | 
29.744 | C F G L L L D R I G S M S G L G C (CFGLLLDRIGSMSGLGC; peptide variant) [SEQ ID NO:43] | 
5.421 | C F G L M L D R I G S M S G L G C (CFGLMLDRIGSMSGLGC; peptide variant) [SEQ ID NO:44] | 
64.212 | C F G V K L D R I G S M S G L G C (CFGVKLDRIGSMSGLGC; peptide variant) [SEQ ID NO:42] | 
3.058 | C H G L K L D R I G S A S G L G C (CHGLKLDRIGSASGLGC; peptide variant) [SEQ ID NO:70] | 
−9.108 | C T G L K L D R I G S A S G L G C (CTGLKLDRIGSASGLGC; peptide variant) [SEQ ID NO:71] | 
